Source: patent publication US20070169210A1 (EMORY UNIVERSITY, published 2007)
Values belong to the molecule of their own block, whether it stands above or below them.

Columns and labels:
[1] = biological target: SED1, endogenous, of mouse sperm and male reproductive tract (mouse) (UniProt P21956); assay: cell-based or functional assay
[2] = biological target: zona pellucida of unfertilized (ovulated) oocytes; assay: cell-based or functional assay
[3] = biological target: T1, ZP1 zona pellucida glycoprotein (murine, UniProt Q62005 21-546); assay: blot overlay of zona glycoproteins resolved under nonreducing conditions, biotinylated (His)6-SED1, streptavidin-HRP
T1 construct: Native glycoprotein on a blot, non-reducing conditions
T1 sequence (looked up): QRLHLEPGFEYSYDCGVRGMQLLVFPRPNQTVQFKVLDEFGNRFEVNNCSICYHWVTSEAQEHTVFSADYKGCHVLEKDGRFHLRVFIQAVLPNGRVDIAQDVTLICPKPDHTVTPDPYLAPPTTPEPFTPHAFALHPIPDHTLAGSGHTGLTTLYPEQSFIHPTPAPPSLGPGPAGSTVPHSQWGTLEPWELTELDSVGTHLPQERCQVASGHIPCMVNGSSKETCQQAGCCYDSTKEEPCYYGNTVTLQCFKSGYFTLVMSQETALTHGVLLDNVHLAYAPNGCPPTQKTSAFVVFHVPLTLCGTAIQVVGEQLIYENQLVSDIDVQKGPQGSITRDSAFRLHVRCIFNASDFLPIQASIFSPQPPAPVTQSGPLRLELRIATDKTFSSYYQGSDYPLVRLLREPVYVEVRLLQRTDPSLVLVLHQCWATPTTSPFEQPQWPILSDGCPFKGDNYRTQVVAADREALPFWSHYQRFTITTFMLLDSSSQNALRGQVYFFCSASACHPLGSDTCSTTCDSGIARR
Description: (§1) The purification of zona pellucida glycoproteins was done as published elsewhere (Miller et al., 1992). The proteins were resolved on 10% polyacrylamide gels and transferred onto Immobilon-P membranes (Millipore) as above. The membranes were blocked in TBST containing 2% BSA for 1 hr at 25° C. Subsequently, membranes were incubated with either (His)₆-SED1, biotinylated (His)₆-SED1, SED1 prepared from COS-7 cells, or biotinylated WGA-lectin (positive control) for 1 hr at 25° C. and washed three times for 10 min in TBST, followed by incubation with either rabbit anti-SED1 and goat anti-rabbit-HRP, or Streptavidin-HRP (Zymed). The membranes were washed, developed, and exposed to film as above.

[4] = biological target: T2, SED1 expressed in COS-7 cells (SED1-COS), on secreted membrane vesicles (mouse, UniProt P21956 23-463); assay: blot overlay, zona glycoproteins resolved under reducing conditions, detected with anti-SED1
T2 construct: Cloned into pcDNA3.1 D/V5-His-Topo; Used as SED1-enriched membrane vesicles released by COS-7 cells; also called COS-expressed SED1
T2 sequence: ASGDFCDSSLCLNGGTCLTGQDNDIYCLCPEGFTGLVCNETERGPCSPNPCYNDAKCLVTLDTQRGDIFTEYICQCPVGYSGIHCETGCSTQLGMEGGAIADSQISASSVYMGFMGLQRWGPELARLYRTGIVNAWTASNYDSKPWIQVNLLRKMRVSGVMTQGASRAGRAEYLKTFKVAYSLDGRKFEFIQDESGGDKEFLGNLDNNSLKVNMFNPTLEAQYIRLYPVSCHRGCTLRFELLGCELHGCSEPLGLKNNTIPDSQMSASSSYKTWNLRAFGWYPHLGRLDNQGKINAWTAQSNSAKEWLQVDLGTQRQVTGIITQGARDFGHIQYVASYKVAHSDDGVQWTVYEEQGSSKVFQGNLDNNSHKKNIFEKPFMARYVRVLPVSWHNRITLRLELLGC
Description: as §1
To determine which of the three zona glycoproteins could serve as the putative ligand for SED1, […]. When zona glycoproteins were resolved under reducing conditions, SED1 bound to glycoproteins comigrating as ZP1/ZP2 as well as ZP3 (FIG. 3D). Similar results were achieved using either biotinylated (His)₆-SED1 (D-SED1) detected by Streptavidin-HRP/ECL or recombinant (His)₆-SED1 (rSED1) detected by rabbit-anti-SED1 IgG and HRP-conjugated secondary antibodies (FIG. 3D). […]

Molecule: (His)6-SED1 truncated fusion protein EEC (both EGF repeats, one discoidin/C domain)
- binding of GalT I null sperm to the zona, % of control (% of control at 3.8 µg/ml) [2]: 21

B2: SED1, endogenous, of mouse sperm and male reproductive tract (protein)
chain: T2 sequence
- sperm bound per egg, SED1 null sperm [2]: 1.45 sperm/egg
- sperm bound per egg, wild-type sperm [2]: 11.2 sperm/egg

B3: ZP3 zona pellucida glycoprotein (other, murine, UniProt P10761 23-351, looked up)
chain: QTLWLLPGGTPTPVGSSSPVKVECLEAELVVTVSRDLFGTGKLVQPGDLTLGSEGCQPRVSVDTDVVRFNAQLHECSSRVQMTKDALVYSTFLLHDPRPVSGLSILRTNRVEVPIECRYPRQGNVSSHPIQPTWVPFRATVSSEEKLAFSLRLMEENWNTEKSAPTFHLGEVAHLQAEVQTGSHLPLQLFVDHCVATPSPLPDPNSSPYHFIVDFHGCLVDGLSESFSAFQVPRPRPETLQFTVDVFHFANSSRNTLYITCHLKVAPANQIPDKLNKACSFNKTSQSWLPVEGDADICDCCSHGNCSNSSSSQFQIHGPRQWSKLVSRN
notes: Native glycoprotein on a blot, reducing and non-reducing conditions
- binding result [4]: binds

Continued, values first:

- binding of GalT I null sperm to the zona, % of control (% of control binding at 200 µg/ml) [1]: 91
Molecule: preimmune rabbit serum / preimmune IgG (antibody)

- binding of GalT I null sperm to the zona, % of control (% of control at 6 µg/ml) [2]: 27
- binding result [3]: no binding
B1: (His)6-SED1 fusion protein (full-length recombinant mouse SED1 expressed in E. coli) (other)
chain: HHHHHHASGDFCDSSLCLNGGTCLTGQDNDIYCLCPEGFTGLVCNETERGPCSPNPCYNDAKCLVTLDTQRGDIFTEYICQCPVGYSGIHCETGCSTQLGMEGGAIADSQISASSVYMGFMGLQRWGPELARLYRTGIVNAWTASNYDSKPWIQVNLLRKMRVSGVMTQGASRAGRAEYLKTFKVAYSLDGRKFEFIQDESGGDKEFLGNLDNNSLKVNMFNPTLEAQYIRLYPVSCHRGCTLRFELLGCELHGCSEPLGLKNNTIPDSQMSASSSYKTWNLRAFGWYPHLGRLDNQGKINAWTAQSNSAKEWLQVDLGTQRQVTGIITQGARDFGHIQYVASYKVAHSDDGVQWTVYEEQGSSKVFQGNLDNNSHKKNIFEKPFMARYVRVLPVSWHNRITLRLELLGC
modifications: biotinylated with Sulfo-NHS-LC-LC-Biotin in the bead assays and in the streptavidin-detected blot overlays
notes: also called rSED1; recombinant SED1
